# Key:
# [1] = molecular target: Val122Ile transthyretin (V122I TTR) (human) (UniProt P02766); assay: native gel or EMSA
# [2] = molecular target: wild-type transthyretin (WT TTR) (human) (UniProt P02766); assay: native gel or EMSA
Substance,t50 of formation of the 2 FT2/2 TTR heterotetramer [1] [h],Kex (subunit exchange rate constant) [2] [h⁻¹],t50 of formation of the 2 FT2/2 TTR heterotetramer [2] [h]
tandem flag-tagged Val122Ile transthyretin (FT2·V122I TTR) (from UniProt P02766 21-147) (natural protein),2.84,–,–
tandem flag-tagged wild-type transthyretin (FT2·WT TTR) (from UniProt P02766 21-147) (natural protein),–,0.28,12.5

# From paper PMC4204887
